Data on two molecules can be found in patent publication US20210162061A1 (DINGFU BIOTARGET, published 2021).

Assay [1] addresses T1, human CD47 (human, UniProt Q08722 19-323).
T1 construct: whole, on cells; also called CD47 on A375 cells; CD47 on human erythrocytes (RBC)
As to the kind of experiment: flow cytometry histogram, 20 µg/ml, fresh human RBCs diluted 2500 times.

Another assay concerns the target T2, CD47-muFc (human).
T2 construct: also called CD47-muFc fusion protein; Group 8
As to the kind of experiment: BLI (Octet K2), CD47-muFc immobilised on AHC biosensors, 25 C.

Another assay concerns the target T3, CD47-EGFP (human).
T3 construct: also called cell surface human CD47; cells expressing CD47-EGFP
As to the kind of experiment: flow cytometry (MFI, anti-hIgG Fc PE) on cells expressing CD47-EGFP, unit taken from the axis Log10(ug/ml). In general terms: A flow cytometer gives signals particle by particle.

Assay [2] concerns the target T1, human CD47. As to the kind of experiment: flow cytometry histogram, 20 µg/ml, anti-hIgG Fc PE; tumor cells mixed with 15-fold excess of human RBCs; RBC gate.

T2 sequence (chain, as listed by the source limits assumed): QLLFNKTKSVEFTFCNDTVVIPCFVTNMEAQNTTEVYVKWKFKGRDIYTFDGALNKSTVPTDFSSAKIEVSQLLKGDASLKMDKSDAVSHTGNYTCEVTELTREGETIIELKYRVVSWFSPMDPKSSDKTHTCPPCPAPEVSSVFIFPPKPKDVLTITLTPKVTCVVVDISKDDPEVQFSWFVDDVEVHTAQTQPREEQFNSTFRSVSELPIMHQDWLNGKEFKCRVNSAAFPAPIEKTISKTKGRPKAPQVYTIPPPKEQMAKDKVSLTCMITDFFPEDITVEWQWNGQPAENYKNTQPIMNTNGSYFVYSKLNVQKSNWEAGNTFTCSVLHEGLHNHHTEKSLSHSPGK
Protocol for CD47-EGFP: The cells were then analyzed by flow cytometry (Life Technology).
Protocol for CD47-muFc: All experiments were performed at 25° C. under a PBS buffer containing 0.5% BSA and 0.5% Tween 20, pH 7.2. […] After the above steps, the subtracted binding interference data were applied to the calculations of binding constants using the FortéBio analysis software provided with the instrument.

B1: hu56di-CV1 (Fc fusion)
chain 1: QVQLVESGGGLVQPGGSLRLSCAASGKMSSRRCMAWFRQAPGKERERVAKLLTTSGSTYLADSVKGRFTISRDNSKNTVYLQMNSLRAEDTAVYYCAADSFEDPTCTLVTSSGAFQYWGQGTLVTVSSGAPQVQLVESGGGLVQPGGSLRLSCAASGKMSSRRCMAWFRQAPGKERERVAKLLTTSGSTYLADSVKGRFTISRDNSKNTVYLQMNSLRAEDTAVYYCAADSFEDPTCTLVTSSGAFQYWGQGTLVTVSSEPKSSDKTHTCPPCPAPELLGGPSVFLFPPKPKDTLMISRTPEVTCVVVDVSHEDPEVKFNWYVDGVEVHNAKTKPREEQYNSTYRVVSVLTVLHQDWLNGKEYKCKVSNKALPAPIEKTISKAKGQPREPQVYTLPPCRDELTKNQVSLWCLVKGFYPSDIAVEWESNGQPENNYKTTPPVLDSDGSFFLYSALTVDKSRWQQGNVFSCSVMHEALHNHYTQKSLSLSPGK
chain 2: EEELQIIQPDKSVLVAAGETATLRCTITSLFPVGPIQWFRGAGPGRVLIYNQRQGPFPRVTTVSDTTKRNNMDFSIRIGNITPADAGTYYCIKFRKGSPDDVEFKSGAGTELSVRAKPSGGGGSDKTHTCPPCPAPELLGGPSVFLFPPKPKDTLMISRTPEVTCVVVDVSHEDPEVKFNWYVDGVEVHNAKTKPREEQYNSTYRVVSVLTVLHQDWLNGKEYKCKVSNKALPAPIEKTISKAKGQPREPQVYTLPPSRDELTKNQVSLSCGVKGFYPSDIAVEWESNGQPENNYKTTPPVLDSDGSFKLASKLTVDKSRWQQGNVFSCSVMHEALHNHYTQKSLSLSPGK
notes: also called Group 14
For B1, the binding result with human CD47 [1] is given as “binds”.

B2: AB6.12 IgG1 (antibody, V domains shown)
VH: QMQLVQSGAEVKKTGSSVKVSCKASGFNIKDYYLHWVRQAPGQALEWMGWIDPDQGDTEYAQKFQDRVTITRDRSMSTAYMELSSLRSEDTAMYYCNAAYGSSSYPMDYWGQGTTVTVSS
VL: NIQMTQSPSAMSASVGDRVTITCKASQDIHRYLSWFQQKPGKVPKHLIYRANRLVSGVPSRFSGSGSGTEFTLTISSLQPEDFATYYCLQYDEFPYTFGGGTKVEIKR
notes: also called anti-CD47 monoclonal antibody AB6.12 IgG1; Group 20
What is called Kd is the free concentration of one partner at which half of the binding sites on the other are occupied at equilibrium, for simple one-to-one binding. High values mean lower affinity, low ones higher affinity. As a reminder, the koff is a measure of how fast the partners let go of each other. Low values mean a long-lived complex, high ones a short-lived complex. By kon is commonly meant the second-order rate constant of association. High values mean fast association, low ones slow association. Broadly, the EC50 is the concentration needed to bring the measured effect to its halfway point. A high value points to weaker potency. In the assay with CD47-muFc, B2 gave a dissociation constant Kd of 0.198 nM, an off-rate (koff) of 0.000129 s⁻¹ and an association rate constant (kon) of 651000 M⁻¹ s⁻¹. In the assay with CD47-EGFP, the EC50 worked out at 0.981 µg/mL. Moreover, the binding result with human CD47 [2] was “binds”.
